Non-standard residues stand in square brackets, D forms with d. No end group written: not given here. pY = N[C@@H](Cc1ccc(OP(=O)(O)O)cc1)C(=O)O
Columns and labels:
Assay in all cases: HeLa cell extract on peptide beads, RIPA wash, immunoblot
[1] = target: human Skp1 (endogenous, HeLa cells) (human, UniProt P63208 2-163)
Description: (§1) Beads were washed with RIPA buffer and bound proteins were immunoblotted with antibodies to the proteins indicated on the left of each panel. A portion of the HeLa extract (25 μg) was used as a control (lane 4). […] C. […] Beads were washed with RIPA buffer and bound proteins subjected to electrophoresis and autoradiography.
(§2) Proteins stably associated with the beads were examined by immunoblotting.

human Cul1 (endogenous) = target: T1, human Cul1 (endogenous) (human, UniProt Q13616 1-776)
T1 construct: A slower migrating form is said to be likely modified by a ubiquitin-like molecule
T1 sequence (Q13616 whole entry): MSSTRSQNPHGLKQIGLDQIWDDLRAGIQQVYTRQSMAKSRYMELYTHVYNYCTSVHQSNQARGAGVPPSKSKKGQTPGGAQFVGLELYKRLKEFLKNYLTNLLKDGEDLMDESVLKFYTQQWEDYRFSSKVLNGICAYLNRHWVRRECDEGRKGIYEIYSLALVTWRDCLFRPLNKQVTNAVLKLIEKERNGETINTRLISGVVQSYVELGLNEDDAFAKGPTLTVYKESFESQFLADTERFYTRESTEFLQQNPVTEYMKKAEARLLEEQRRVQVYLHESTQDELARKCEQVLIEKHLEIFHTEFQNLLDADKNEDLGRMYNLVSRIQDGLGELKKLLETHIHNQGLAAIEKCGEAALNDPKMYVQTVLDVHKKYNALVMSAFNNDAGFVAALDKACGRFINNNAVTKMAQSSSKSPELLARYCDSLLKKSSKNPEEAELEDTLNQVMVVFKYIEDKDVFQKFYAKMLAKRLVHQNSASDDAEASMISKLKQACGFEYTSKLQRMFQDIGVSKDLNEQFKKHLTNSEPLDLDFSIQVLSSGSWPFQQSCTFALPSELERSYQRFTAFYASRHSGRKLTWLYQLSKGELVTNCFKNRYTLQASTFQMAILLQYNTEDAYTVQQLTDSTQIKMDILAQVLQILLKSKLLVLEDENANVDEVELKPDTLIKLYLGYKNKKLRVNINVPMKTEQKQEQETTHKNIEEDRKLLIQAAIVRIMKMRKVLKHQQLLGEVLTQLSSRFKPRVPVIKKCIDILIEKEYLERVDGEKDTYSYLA
Description: as §1, §2

human F-box protein Skp2 = target: T2, human F-box protein Skp2 (human, UniProt Q13309 1-424)
T2 construct: Used as in vitro translated 35S-Skp2, as endogenous protein of HeLa and IMR90 extracts and as untagged baculovirus protein; also called S-phase kinase-associated protein 2
T2 sequence (Q13309 whole entry): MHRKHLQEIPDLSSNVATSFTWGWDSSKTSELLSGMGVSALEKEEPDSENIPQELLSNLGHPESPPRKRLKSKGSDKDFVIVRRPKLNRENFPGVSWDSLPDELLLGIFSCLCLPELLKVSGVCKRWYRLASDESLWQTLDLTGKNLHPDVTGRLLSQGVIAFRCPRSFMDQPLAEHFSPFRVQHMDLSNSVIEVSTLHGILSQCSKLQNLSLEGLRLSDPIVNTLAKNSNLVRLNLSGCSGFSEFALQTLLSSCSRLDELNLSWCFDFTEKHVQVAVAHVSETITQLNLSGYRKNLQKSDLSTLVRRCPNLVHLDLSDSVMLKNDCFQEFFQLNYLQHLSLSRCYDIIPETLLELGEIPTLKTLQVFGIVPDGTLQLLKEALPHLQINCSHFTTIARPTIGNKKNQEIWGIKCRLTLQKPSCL
Description: as §1, §2

Measured: binding result

human Skp1 (endogenous, HeLa cells), sequence (P63208 2-163 limits assumed): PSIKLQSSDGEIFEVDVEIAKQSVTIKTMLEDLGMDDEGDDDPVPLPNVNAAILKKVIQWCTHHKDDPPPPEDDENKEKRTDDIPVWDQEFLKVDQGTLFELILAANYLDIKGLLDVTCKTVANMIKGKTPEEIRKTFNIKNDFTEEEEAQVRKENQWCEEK

B1: control phospho-peptide AEIGVGAY*GTVYKARDPHS of human Cdk4 (peptide)
peptide: AEIGVGA[pY]GTVYKARDPHS
notes: Coupled to beads; also called unrelated phospho-peptide
no binding: [1] | human Cul1 (endogenous) | human F-box protein Skp2

Reference: US20020123082A1 (NEW YORK UNIVERSITY, published 2002)
